Assay results from patent US20020098523A1.

Legend:
Human eotaxin (human) [1] = target: Human eotaxin (human) (UniProt P51671); test: not stated (summary sentence in the introduction)
Human eotaxin (human) [2] = target: Human eotaxin (human) (UniProt P51671); test: Flash Plate scintillation competition: unlabelled CAT-212 against coated CAT-212 for [125I]eotaxin; mean of 4 estimates
Human eotaxin (human) [3] = target: Human eotaxin (human) (UniProt P51671); test: saturation binding of [125I]eotaxin to coated CAT-212 on a Flash Plate, Scatchard plot
Human eotaxin (human) [4] = target: Human eotaxin (human) (UniProt P51671); test: cell-based or functional assay

Sequence of Human eotaxin (human) (P51671 24-97 limits assumed): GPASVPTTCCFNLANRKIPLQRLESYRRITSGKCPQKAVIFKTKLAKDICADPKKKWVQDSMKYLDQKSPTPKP

B1: CAT-212 (scFv, part only; not given: scFv linker and myc/His tag, V domains shown, not shown: another chain or arm of the molecule; small tags and cut ends)
VH: QVQLVQSGGGVVQPGRSLRLSCAASGFTFSSYGMHWVRQAPGKGLEWVAVISYDGSIKHYADSVKGRFTISRDNSKNTLYLQMNSLRTDDTAVYYCAGDTDYGDIDPWGQGTMVTVSS
VL: DIQMTQSPSSVSASVGDRVTITCRASQDISSWLAWYQQKPGKAPKLLIYAASSLQSGVPSRFSGSGSGTDFTLTISSLQPEDFATYYCQQASSFPSITFGQGTRLEIK
Q: For B1, which Kd (Human eotaxin (human) [1]) is on record?
A: 0.015 nM

Q: And the IC50 (Human eotaxin (human) [2])?
A: 0.0425 nM

Q: And the Kd (Human eotaxin (human) [3])?
A: 0.146 nM

Q: What about the IC50, inhibition of eotaxin-induced Ca2+ flux in CCR3 cells (FLIPR, area under the curve) (Human eotaxin (human) [4]) of the same binder?
A: 5 nM

Q: And the IC50, inhibition of eotaxin-mediated chemotaxis of CCR3-transfected L1.2 cells (Human eotaxin (human) [4])?
A: 0.65 nM

Q: What about the improvement in chemotaxis neutralisation potency over scFv 3G3 (Human eotaxin (human) [4]) of the same binder?
A: 1000 fold
